Source: the supplement of paper PMC9170038

Tested on: MS2 coat protein
Assay: apparent KD of MS2 coat protein; designed switch direction (-1 OFF switch, 1 ON switch): 1; higher = weaker reporter binding
Outline: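 SNAP-549-labelled MS2 coat protein was titrated, doubling from 0.7 or 1.5 nM to 3 µM, over designed RNA switches transcribed on Illumina chips by stalled E. coli RNA polymerase. Runs were done without input, with 200 uM small-molecule ligand, or with an oligonucleotide input. Apparent KD is the per-design median over clusters of curve-fitted normalised fluorescence.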

[1] = input ligand: microRNA oligo, concentration not stated

GUGGCCCAGGCACAGGAUAUGUUUCUCGUAACAUGAGGAUCACCCAUGUGCCUAUGAGAUUUAAUGCAGAAGGGUGCACGCCACA [Mat - Same State 2 - Mod of UCT - D78] (puzzle: Same State 2)
apparent KD of MS2 coat protein (Eterna round: R95, input ligand: FMN 200 uM): 18.8 nM
apparent KD of MS2 coat protein (Eterna round: R95, input ligand: microRNA oligo, concentration not stated): 164 nM
apparent KD of MS2 coat protein (Eterna round: R95, input ligand: none): 199 nM

GUGGUCAGACAUGAGGAUCACCCAUGUGGAAUAAAUAACGAACAGGAUAUUCAAUAUAGGAUAUAGAAGAAGGGUUGAUUGGUG (Eterna round: R96, puzzle: Same State NG 3)
apparent KD of MS2 coat protein (input ligand: FMN 200 uM): 204 nM
apparent KD of MS2 coat protein [1]: 171 nM
apparent KD of MS2 coat protein (input ligand: none): 187 nM

GUGGUCAGACAUGAGGAUCACCCAUGUGGAAUAAAUAACGUACAGGAUAUGCAAUAUAGGAUAUAGUAGAAGGGUAGAUUGGUG (Eterna round: R96, puzzle: Same State NG 3)
apparent KD of MS2 coat protein (input ligand: FMN 200 uM): 116 nM
apparent KD of MS2 coat protein [1]: 95 nM
apparent KD of MS2 coat protein (input ligand: none): 123 nM

GUGGUCAGACAUGAGGAUCACCCAUGUGGAAUAAAUAACGUCAAGGAUAUAUAAUAUAGGAUAUAAUAGAAGGUGAGAUUGGUG (Eterna round: R96, puzzle: Same State NG 3)
apparent KD of MS2 coat protein (input ligand: FMN 200 uM): 108 nM
apparent KD of MS2 coat protein [1]: 107 nM
apparent KD of MS2 coat protein (input ligand: none): 119 nM

GUGGUCAGACAUGAGGAUCACCCAUGUGGAAUAAAUAAGGAACAGGAUAUGGAAUAUAGGAUAUACCAGAAGGGUUGGUUGGUG (Eterna round: R96, puzzle: Same State NG 3)
apparent KD of MS2 coat protein [1]: 62.3 nM

GUGGUCAGACAUGAGGAUCACCCAUGUGGAAUAAAUAAGGAGAAGGAUAUGGAAUAUAGGAUAUACCAGAAGGUCUGGUUGGUG (Eterna round: R96, puzzle: Same State NG 3)
apparent KD of MS2 coat protein [1]: 55.8 nM

GUGGUCAGACAUGAGGAUCACCCAUGUGGAAUAAAUAAGGAGAAGGAUAUGUAAUAUAGGAUAUAACAGAAGGUUUGGUUGGUG (Eterna round: R96, puzzle: Same State NG 3)
apparent KD of MS2 coat protein (input ligand: FMN 200 uM): 105 nM
apparent KD of MS2 coat protein [1]: 69.7 nM
apparent KD of MS2 coat protein (input ligand: none): 96.5 nM

GUGGUCAGACAUGAGGAUCACCCAUGUGGAAUAAAUAAGGGUCAGGAUAUGAAAUAUAGGAUAUAUCAGAAGGGAUGGUUGGUG (Eterna round: R96, puzzle: Same State NG 3)
apparent KD of MS2 coat protein (input ligand: FMN 200 uM): 101 nM
apparent KD of MS2 coat protein [1]: 81.1 nM
apparent KD of MS2 coat protein (input ligand: none): 90.5 nM

GUGGUCAGACAUGAGGAUCACCCAUGUGGAAUAAAUAAGGGUUAGGAUAUCUAAUAUAGGAUAUAAGAGAAGGGAUGGUUGGUG (Eterna round: R96, puzzle: Same State NG 3)
apparent KD of MS2 coat protein (input ligand: FMN 200 uM): 118 nM
apparent KD of MS2 coat protein [1]: 64.8 nM
apparent KD of MS2 coat protein (input ligand: none): 96.2 nM

GUGGUCUGACAUGAGGAUCACCCAUGUGGAAUAAAUACGGGUUAGGAUAUCUUGAGGAUCACCCAAGAGAAGGGAUGGACCGUU (Eterna round: R96, puzzle: Same State NG 3)
apparent KD of MS2 coat protein (input ligand: FMN 200 uM): 36.3 nM
apparent KD of MS2 coat protein [1]: 30.9 nM
apparent KD of MS2 coat protein (input ligand: none): 47.5 nM

GUGGUCUGACAUGAGGAUCACCCAUGUGGAAUAAAUACGGGUUAGGAUAUCUUGAGGAUCACCCAAGAGAAGGGAUGGAUGGUC (Eterna round: R96, puzzle: Same State NG 3)
apparent KD of MS2 coat protein [1]: 71 nM

GUGGUGCUUCUAGGAUAUUCAGCGGCCCUCACAUGAGGAUCACCCAUGUUCACAAGAGAAACCAUGAAGAAGGAGAACUACAAU [Eternabot solution 42] (Eterna round: R96, puzzle: Same State NG 2)
apparent KD of MS2 coat protein (input ligand: FMN 200 uM): 45.6 nM
apparent KD of MS2 coat protein [1]: 39.9 nM
apparent KD of MS2 coat protein (input ligand: none): 55.8 nM

GUGGUGGGUUGAGGAUAUUGGUUGUUGUUGUCCCACAUGAGGAUCACCCAUGUGGGUUGUGGUUUUGAGAAGGUUGGUUGCUGG [salish99_SSNG2_r04_051] (Eterna round: R96, puzzle: Same State NG 2)
apparent KD of MS2 coat protein [1]: 14.4 nM

GUGGUGUAGAUACAGGAUAUGUUGCUCGUAACAUGAGGAUCACCCAUGUAUCUAUGAGAUUAAAUGCAGAAGGGUGCACACCACG [Maerveen] (Eterna round: R96, puzzle: Same State 2)
apparent KD of MS2 coat protein (input ligand: FMN 200 uM): 22 nM
apparent KD of MS2 coat protein [1]: 220 nM
apparent KD of MS2 coat protein (input ligand: none): 358 nM
